# Experimental data reported in patent US20090191187A1.
# Molecular target: human interleukin-1 receptor on cells (MRC-5 human embryonic lung fibroblasts; human blood cells) (human) (UniProt P14778)
# Test: cell-based or functional assay
# human interleukin-1 receptor on cells (MRC-5 human embryonic lung fibroblasts; human blood cells) (human), sequence (P14778 18-569): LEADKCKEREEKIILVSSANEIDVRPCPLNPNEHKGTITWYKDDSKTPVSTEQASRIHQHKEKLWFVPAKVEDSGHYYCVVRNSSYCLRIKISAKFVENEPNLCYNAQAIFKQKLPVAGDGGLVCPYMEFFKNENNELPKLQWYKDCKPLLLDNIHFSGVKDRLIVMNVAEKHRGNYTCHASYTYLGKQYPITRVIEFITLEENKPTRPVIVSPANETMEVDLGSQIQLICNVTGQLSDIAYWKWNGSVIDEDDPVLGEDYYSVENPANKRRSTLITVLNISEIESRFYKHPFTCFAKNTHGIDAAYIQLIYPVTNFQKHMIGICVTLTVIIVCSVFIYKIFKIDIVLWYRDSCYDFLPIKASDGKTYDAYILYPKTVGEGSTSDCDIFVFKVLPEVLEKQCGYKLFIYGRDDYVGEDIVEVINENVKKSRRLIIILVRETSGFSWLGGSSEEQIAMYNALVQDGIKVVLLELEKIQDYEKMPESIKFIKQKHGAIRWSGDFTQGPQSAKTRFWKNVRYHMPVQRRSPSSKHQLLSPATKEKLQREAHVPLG
row,Substance,IC-50 (MRC-5 bioassay) [ng/mL]
1,"Antigenix Cat.# MC260020, clone R11 (antibody)",> 100
2,"Antigenix Cat.# MC261020, clone R12 (antibody)",> 100
3,"BD Pharmingen Cat.# 551388, clone HIL1R-M1 (antibody)",> 100
4,"Biotrend Cat.# 0100-0242, clone 49/20 (antibody)",> 100
5,"Cell Sciences Cat.# CM2028, clone RMHL-1 (antibody)",> 100
6,"PBL Biomedical Laboratories Cat.# 21808-1, clone RMH1R-1 (antibody)",33
7,"PBL Biomedical Laboratories Cat.# 21809-1, clone RMH1R-2 (antibody)",> 100
8,"R&D Systems Cat.# MAB269, clone 35730 (antibody)",> 100
